Laboratory results published in the supplement of paper PMC7877785.
± gives the uncertainty stated by the source.

Test: self-splicing fitness, log relative to wild type (ln ratio); higher = more splicing; Tetrahymena group I intron in knt gene, E. coli kanamycin selection, DiMSum; sequences stand for … in CUCUCU…GGAGGGAAAAGUUAUCAGGCAUGCACCUGGUAGCUAGUCUUUAAACCAAUAGAUUGCAUCGGUUUAAAAGGCAAGACCGUCAAAUUGCGGGAAAGGGGUCAACAGCCGUUCAGUACCAAGUCUCAGGGGAAACUUUGAGAUGGCCUUGCAAAGGGUAUGGUAAUAAGCUGACGGACAUGGUCCUAACCACGCAGCCAAGUCCUAAGUCAACAGAUCUUCUGUUGAUAUGGAUGCAGUUCACAGACUAAAUGUCGGUCGGGGAAGAUGUAUUCUUCUCAUAAGAUAUAGUCGGACCUCUCCUUAAUGGGAGCUAGCGGAUGAAGUGAUGCAACACUGGAGCCGCUGGGAACUAAUUUGUAUGCGAAAGUAUAUUGAUUAGUUUUGGAGUACUCGUGGUCG
Method in brief: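 Library with all eight P1ex-region intron nucleotides randomised, intron inside the knt kanamycin-resistance gene on pET-22b(+), in E. coli BL21(DE3). Cells grew overnight at 37°C or 30°C on LB agar with or without 25 μg/mL kanamycin (plus 100 μg/mL carbenicillin, 50 μM IPTG, 0.2% rhamnose), in six replicate transformations. Pooled colonies were amplicon-sequenced on Illumina HiSeq 2500. DiMSum fitness is the error-weighted combination of wild-type-normalised replicate fold changes, kanamycin versus none.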

Sequence	self-splicing fitness (ln) (30 °C)	self-splicing fitness (ln) (37 °C)
GCUGAGCAAUAUUACGUAAU	-3.77 ± 0.24	-1.29 ± 0.14
CGUCAGCAAUAUUACGUAGU	-2.26 ± 0.12	-1.24 ± 0.13
GGUUAGCAAUAUUACGAGGU		-2.43 ± 0.32
AUCGAGCAAUAUUACGGAAC	-2.61 ± 0.31	-2.07 ± 0.4
UAAGAGCAAUAUUACGAGCG	-3.12 ± 0.35	-1.54 ± 0.26
CACGAGCAAUAUUACGUCGA	-2.23 ± 0.35	-2.81 ± 0.26
CCGUAGCAAUAUUACGCAAA		-2.24 ± 0.25
UUGGAGCAAUAUUACGCUGG	-1.62 ± 0.34	-0.962 ± 0.32
ACUAAGCAAUAUUACGCGCA	-0.252 ± 0.067	-0.518 ± 0.085
AUAAAGCAAUAUUACGUUCG	-0.321 ± 0.085	0.17 ± 0.13
CGUGAGCAAUAUUACGGGAG	-3.67 ± 0.24	-2.52 ± 0.19
GUACAGCAAUAUUACGCAAU	-2.58 ± 0.21	-1.87 ± 0.27
CAAGAGCAAUAUUACGCAAU	-3.31 ± 0.44	-1.52 ± 0.22
GCAGAGCAAUAUUACGUGCU	-3.24 ± 0.15	-2.73 ± 0.22
CGAAAGCAAUAUUACGGGCU	-2.74 ± 0.14	-1.55 ± 0.17
UUCUAGCAAUAUUACGUGGA	-1.73 ± 0.31	-1.15 ± 0.18
GGCUAGCAAUAUUACGUGGU	-3.18 ± 0.23	-2.13 ± 0.24
GAGUAGCAAUAUUACGUUUA	-3.09 ± 0.25	-1.63 ± 0.19
AGCUAGCAAUAUUACGCCCU	-0.747 ± 0.13	0.627 ± 0.15
CGUCAGCAAUAUUACGAUCA	-0.722 ± 0.096	0.228 ± 0.12
ACUCAGCAAUAUUACGUUAC	-4.33 ± 0.26	-2.31 ± 0.18
GAGUAGCAAUAUUACGGACG	-3.14 ± 0.28	-0.531 ± 0.2
AGCAAGCAAUAUUACGACAC	-1.21 ± 0.085	-0.583 ± 0.11
UUCGAGCAAUAUUACGGUAG	-3.12 ± 0.31	-0.753 ± 0.14
AGUAAGCAAUAUUACGUUUU	-3.28 ± 0.14	-2.19 ± 0.16

Sequence	self-splicing fitness (ln) (30 °C)	self-splicing fitness (ln) (37 °C)
ACUUAGCAAUAUUACGCCAU	-2.99 ± 0.35	-2.52 ± 0.38
CAAAAGCAAUAUUACGGUAA	-1.91 ± 0.12	-1.45 ± 0.15
CUCAAGCAAUAUUACGCAAA	-3.82 ± 0.31	-2.47 ± 0.25
ACAAAGCAAUAUUACGGAGC	-3.17 ± 0.13	-2.62 ± 0.15
CUGAAGCAAUAUUACGCACC	-2.27 ± 0.34	
GAAAAGCAAUAUUACGGGCA	-0.677 ± 0.086	-0.191 ± 0.093
CUUGAGCAAUAUUACGUACG	-1.44 ± 0.097	-0.683 ± 0.1
CGGUAGCAAUAUUACGUUAU	-2.66 ± 0.25	
ACAAAGCAAUAUUACGAUCA	-0.675 ± 0.066	-0.735 ± 0.093
CAGAAGCAAUAUUACGGCUU	-3.46 ± 0.21	-3.66 ± 0.29
GCGAAGCAAUAUUACGCUCG	-2.95 ± 0.29	-2.12 ± 0.27
GUGCAGCAAUAUUACGUGCA	-3.19 ± 0.15	-2.41 ± 0.17
UGUUAGCAAUAUUACGAUCC	-0.915 ± 0.34	
ACCGAGCAAUAUUACGAGUC	-4.62 ± 0.3	-3.25 ± 0.22
AAUCAGCAAUAUUACGAUCU	0.0008 ± 0.059	0.914 ± 0.088
CUGAAGCAAUAUUACGACCC	-2.58 ± 0.38	
AGCGAGCAAUAUUACGCCUC	-1.82 ± 0.3	
AGACAGCAAUAUUACGGGUA	-2.49 ± 0.1	-2.1 ± 0.095
UUCUAGCAAUAUUACGGAGC	-2.48 ± 0.44	
CUGGAGCAAUAUUACGUCGG	-3.08 ± 0.26	
CUUCAGCAAUAUUACGCUGG	-3.83 ± 0.21	-2.15 ± 0.14
AGUAAGCAAUAUUACGUGGG	-3.66 ± 0.26	-1.89 ± 0.17
GCGUAGCAAUAUUACGUCGA	-2.69 ± 0.35	-1.85 ± 0.32
GGUCAGCAAUAUUACGUGUA	-0.892 ± 0.071	-0.855 ± 0.082
UGGAAGCAAUAUUACGGCUU	-2.94 ± 0.32	-1.73 ± 0.45
